This assay concerns the target T1, LENG8(283–346) (human, UniProt Q96PV6 283-346).
T1 construct: LENG8, human, residues 283–346 (conserved helical region N-terminal to the SAC3 domain); also called LENG8^283–346 WT; source: recombinant
T1 sequence (looked up): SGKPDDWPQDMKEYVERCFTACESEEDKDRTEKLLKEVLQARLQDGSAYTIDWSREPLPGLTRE
The assay is described as follows: pull-down; biotinylated, fluorescein-labelled ZFC3H1 peptide (200 µg) on magnetic streptavidin beads; 15 μg LENG8(283–346) or its F301A mutant added, 60 min at 4 °C; 25 mM HEPES pH 7.9, 100 mM NaCl, 5% glycerol, 1 mM MgCl2, 1 mM TCEP, 0.01% Igepal CA-630; glycine pH 2.5 elution; Coomassie and fluorescein imaging. Particulars: both partners purified.

The values below come from publication PMC13391367 (Nature, 2025).

The star is where a group is joined. Biotin = O=C1N[C@H]2[C@H](CS[C@H]2CCCCC(=O)*)N1; fluorescein = fluorescein label

B1: Biotin-ZFC3H1^728–752 wild-type peptide, C-terminal fluorescein (peptide, UniProt O60293 728-752, looked up)
peptide: Biotin-NSVFGGLESMIKEARRTAEQASKPK-fluorescein
notes: ZFC3H1, human, residues 728–752; also called ZFC3H1 peptide WT
As for B1, the binding result is “binds”.
